Here are results for one substance from article PMC7531118, “Investigating host-microbiome interactions by droplet based microfluidics” (Microbiome, 2020).

The test system of series [1] is CC(=O)N[C@H]1[C@H](Oc2ccc([N+](=O)[O-])cc2)O[C@H](CO)[C@@H](O)[C@@H]1O. The series is described as follows: purified protein. Particulars: citrate buffer pH 5.5, 0.25 to 1.5 mM substrate, 30.0 °C.
The test system of series [2] is CC(=O)N[C@H]1[C@H](Oc2ccc([N+](=O)[O-])cc2)O[C@H](CO)[C@H](O)[C@@H]1O. The series is described as follows: purified protein. The note with it: citrate buffer pH 5.5, 0.25 to 1.5 mM substrate, 30.0 °C.

The Km is the concentration of substrate that gives half-maximal velocity. One may read the kcat as the maximal rate divided by the concentration of active sites. By kcat/Km is commonly meant the second-order rate constant that governs catalysis at low substrate concentration. As to “Uhgb_GH123 (Phocaeicola plebeius DSM 17135)”, in series [1], the Km was determined as 3870 ± 270 µM, the kcat was 0.33 ± 0.02 s⁻¹ and the specificity constant (kcat/Km) was 85 M⁻¹ s⁻¹. Further, in series [2], the Michaelis-Menten constant (Km) was determined as 1170 ± 100 µM, the catalytic constant (kcat) came out at 21.2 ± 1.18 s⁻¹ and the kcat/Km turned out to be 18200 M⁻¹ s⁻¹.
